Data as given in IntAct's records for PubMed 15479639.

B1: Chaperone ric-8 (Caenorhabditis elegans), Q9GSX9-1 (parent)
chain: MSEELHSDLIASIFGGKPAKIEEFFSKWNFANAAVSKFDMANSAKNELGDRICEVIENGELTHVLLETIKILSREKDGLEGLLNDPLCDKILAFAELSSNENNSKTVHTLMEAQKCLINTLFHSQRMRDRFYANPKTGENLQFFLGEFEENRRKTSSIDWIRLLNPVQAAEIWYFYHRIAFIATALGREFQKNWANDPKTIDSLLLAVEICTNRSENSTQDINRATEALKTFFNVFCHFHGDVKAIDHKNAAKTCQILRDAICSDVLTDDVVQSAIHCLSVPPLPMVLSVLCGKNSKNNGGENEEEKFFVEELSNMQLTEAILMHLDKQLTKVVALLLNDAPNQQQNPMLSAEASTLTDLVGPYFQVLARLCTDSKYVRRYCRIRVIPPLVSEEVQKRPEENNTLRGRIARIMMLPSSTKDVAAEFLFIICKRSVNRMIKYLGFGHSAGHLANLGLLGQINQPKHASDSEDSETEDYNQIKDSVNPVTGAIYPSDHGSALAGMSEEQKEYEAMKLVDAMNQMMETGIVKPGTIGDDGKIREVSHVLELLKNAPEPAPAENSDSDEE

Variants of: B1
Conditions: with gnao_caeel goa-1, P51875
Chain of gnao_caeel goa-1, P51875 (P51875 whole entry): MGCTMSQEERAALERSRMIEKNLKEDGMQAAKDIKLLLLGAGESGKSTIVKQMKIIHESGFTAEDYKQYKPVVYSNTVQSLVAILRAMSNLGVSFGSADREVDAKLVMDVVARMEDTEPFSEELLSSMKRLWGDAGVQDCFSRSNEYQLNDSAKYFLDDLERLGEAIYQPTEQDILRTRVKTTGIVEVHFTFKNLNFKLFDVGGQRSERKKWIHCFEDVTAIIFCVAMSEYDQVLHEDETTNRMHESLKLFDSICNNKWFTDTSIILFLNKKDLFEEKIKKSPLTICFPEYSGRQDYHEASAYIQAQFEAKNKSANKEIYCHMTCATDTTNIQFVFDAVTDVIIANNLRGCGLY

| effect of a mutation on the interaction | Variant |
| --- | --- |
| decreasing interaction | MSEELHSDLIASIFGGKPAKIEEFFSKWNFANAAVSKFDMANSAKNELGDRICEVIENGELTHVLLETIKILSREKDGLEGLLNDPLCDKILAFAELSSNENNSKTVHTLMEAQKCLINTLFHSQRMRDRFYANPKTGENLQFFLGEFEENRRKTSSIDWIRLLNPVQAAEIWYFYHRIAFIATALGREFQKNWANDPKTIDSLLLAVEICTNRSENSTQDINRATEALKTFFNVFCHFHGDVKAIDHKNAAKTCQILRDAICSDVLTDDVVQSEIHCLSVPPLPMVLSVLCGKNSKNNGGENEEEKFFVEELSNMQLTEAILMHLDKQLTKVVALLLNDAPNQQQNPMLSAEASTLTDLVGPYFQVLARLCTDSKYVRRYCRIRVIPPLVSEEVQKRPEENNTLRGRIARIMMLPSSTKDVAAEFLFIICKRSVNRMIKYLGFGHSAGHLANLGLLGQINQPKHASDSEDSETEDYNQIKDSVNPVTGAIYPSDHGSALAGMSEEQKEYEAMKLVDAMNQMMETGIVKPGTIGDDGKIREVSHVLELLKNAPEPAPAENSDSDEE [A275E] |
| increasing interaction | MSEELHSDLIASIFGGKPAKIEEFFSKWNFANAAVSKFDMANSAKNELGDRICEVIENGELTHVLLETIKILSREKDGLEGLLNDPLCDKILAFAELSSNENNSKTVHTLMEAQKCLINTLFHSQRMRDRFYANPKTGENLQFFLGEFEENRRKTSSIDWIRLLNPVQAAEIWYFYHRIAFIATALGREFQKNWANDPKTIDSLLLAVEICTNRSENSTQDINRATEALKTFFNVFCHFHGDVKAIDHKNAAKTCQILRDAICSDVFTDDVVQSAIHCLSVPPLPMVLSVLCGKNSKNNGGENEEEKFFVEELSNMQLTEAILMHLDKQLTKVVALLLNDAPNQQQNPMLSAEASTLTDLVGPYFQVLARLCTDSKYVRRYCRIRVIPPLVSEEVQKRPEENNTLRGRIARIMMLPSSTKDVAAEFLFIICKRSVNRMIKYLGFGHSAGHLANLGLLGQINQPKHASDSEDSETEDYNQIKDSVNPVTGAIYPSDHGSALAGMSEEQKEYEAMKLVDAMNQMMETGIVKPGTIGDDGKIREVSHVLELLKNAPEPAPAENSDSDEE [L267F] |
